T1: peptide p300 [84-93 (S89A)], Q09472
T1 chain: LLRSGASPNL

B1: GST-rat SIK1 (protein)
chain: MVIMSEFSAVPTGTGQGQQKPLRVGFYDVERTLGKGNFAVVKLARHRVTKTQVAIKIIDKTRLDSSNLEKIYREVQLMKLLNHPNIIKLYQVMETKDMLYIVTEFAKNGEMFDYLTSNGHLSENEARKKFWQILSAVEYCHNHHIVHRDLKTENLLLDGNMDIKLADFGFGNFYKPGEPLSTWCGSPPYAAPEVFEGKEYEGPQLDIWSLGVVLYVLVCGSLPFDGPNLPTLRQRVLEGRFRIPFFMSQDCETLIRRMLVVDPAKRITIAQIRQHRWMQADPTLLQQDDPAFSMQGYTSNLGDYNEQVLGIMQALGIDRQRTVESLQNSSYNHFAAIYYLLLERLREHRSTQPSSRATPAPARQPQLRNSDLSSLEVPQEILPCDPFRPSLLCPQPQALAQSVLQAEIDCDLHSSLQPLFFPLDTNCSGVFRHRSISPSSLLDTAISEEARQGPSLEEEQEVQEPLPGSTGRRHTLAEVSTHFSPLNPPCIIVSSSAAVSPSEGTSSDSCLPFSASEGPAGLGGGLATPGLLGTSSPVRLASPFLGSQSATPVLQSQAGLGATVLPPVSFQEGRRASDTSLTQGLKAFRQQLRKNARTKGFLGLNKIKGLARQVCQSSIRGSRGGMSTFHTPAPSSGLQGCTASSREGRSLLEEVLHQQRLLQLQHHSAVSSDYQQAPQLSPVPYVLTPCDGLLVSGIPLLPTPLLQPGMSPVASAAQLLDAHLHISAGPVALPTGPLPQCLTRLSPSCDPAGLPQGDCEMEDLTSGQRGTFVLVQ
B2: GST-mSIK2 (protein)
chain: MVMADGPRHLQRGPVRVGFYDIEGTLGKGNFAVVKLGRHRTTKTEVAIKIIDKSQLDAVNLEKIYREVQIMKMLDHPHIIKLYQVMETKSMLYLVTEYAKNGEIFDYLANHGRLNESEARRKFWQILSAVDYCHGRKVVHRDLKAENLLLDNNMNIKIADFGFGNFFKTGELLATWCGSPPYAAPEVFEGQQYEGPQLDIWSMGVVLYVLVCGALPFDGPTLPILRQRVLEGRFRIPYFMSEDCEHLIRRMLVLDPSKRLSIAQIKEHKWMLIEVPVQRPILYPQEQENEPSIGEFNEQVLRLMHSLGIDQQKTVESLQNKSYNHFAAIYFLLVERLKSHRSSFPVEQRLDGRQRRPSTIAEQTVAKAQTVGLPVTLHPPNVRLMRSTLLPQASNVEAFSFPTSSCQAEAAFMEEECVDTPKVNGCLLDPVPPVLVRKGCQSLPSSMMETSIDEGLETEGEAEEDPSQAFEAFQATRSGQRRHTLSEVTNQLVVMPGAGKMFSMSDNPSLESVDSEYDMGSAQRDLNFLEDSPSLKDIMLANQPSPRMTSPFISLRPANPAMQALSSQKREAHNRSPVSFREGRRASDTSLTQGIVAFRQHLQNLARTKGILELNKVQLLYEQMGSNADPTLTSTAPQLQDLSSSCPQEEISQQQESVSSLSASMHPQLSPQQSLETQYLQHRLQKPNLLPKAQSPCPVYCKEPPRSLEQQLQEHRLQQKRLFLQKQSQLQAYFNQMQIAESSYPGPSQQLALPHQETPLTSQQPPSFSLTQALSPVLEPSSEQMQFSSFLSQYPEMQLQPLPSTPGPRAPPPLPSQLQQHQQPPPPPPPPPPQQPGAAPTSLQFSYQTCELPSTTSSVPNYPASCHYPVDGAQQSNLTGADCPRSSGLQDTASSYDPLALSELPGLFDCEMVEAVDPQHNGVVSCLARET

Tests used:
[1] = target: wild-type SIK1 peptide not phosphorylated by PKA (on GST as carrier protein) [GST: P08515]
Sequence of wild-type SIK1 peptide not phosphorylated by PKA (on GST as carrier protein) [GST: P08515] (P08515 whole entry, looked up): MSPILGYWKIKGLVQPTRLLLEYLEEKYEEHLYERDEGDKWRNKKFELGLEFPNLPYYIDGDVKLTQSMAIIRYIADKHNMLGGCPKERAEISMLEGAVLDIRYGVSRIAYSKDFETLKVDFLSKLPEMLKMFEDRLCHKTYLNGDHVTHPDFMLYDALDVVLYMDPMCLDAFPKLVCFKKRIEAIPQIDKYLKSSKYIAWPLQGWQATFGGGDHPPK

[2] = target: SIK1 substrate mutant (R574/575A) wherein arginines at positions 574 and 575 are substituted with alanines
[3] = target: SIK1 substrate mutant (R574A) wherein arginine at position 574 is substituted with alanine
[4] = target: SIK1 peptide wherein serine at position 577 is substituted with alanine (on GST as carrier protein) [GST: P08515]
Sequence of SIK1 peptide wherein serine at position 577 is substituted with alanine (on GST as carrier protein) [GST: P08515] (P08515 whole entry, looked up): as above

[5] = target: SIK1 substrate mutant (R575A) wherein arginine at position 575 is substituted with alanine
[6] = target: GST-Syntide 2 [GST: P08515]
Sequence of GST-Syntide 2 [GST: P08515] (P08515 whole entry, looked up): as above

[7] = target: T1, peptide p300 [84-93 (S89A)], Q09472

| Protein | phosphorylation of the substrate (32P) [1] | phosphorylation of the substrate (32P) [2] | phosphorylation of the substrate (32P) [3] | phosphorylation of the substrate (32P) [4] | phosphorylation of the substrate (32P) [5] | protein-phosphorylating activity (32P intake, SDS-PAGE) [6] | enzyme activity of SIK (phosphorylation of Syntide 2) [7] | phosphorylation by SIK [7] |
| --- | --- | --- | --- | --- | --- | --- | --- | --- |
| B1 | the wild-type SIK1 was phosphorylated | the mutants S577A, R574A, and R574/575A were not phosphorylated | the mutants S577A, R574A, and R574/575A were not phosphorylated | the mutants S577A, R574A, and R574/575A were not phosphorylated | the mutant R575A was phosphorylated much more efficiently than the case of the wild-type SIK1 | GST-rat SIK1 and GST-rat SIK1 (K56M) were subjected to the same experiment. Consequently, the same results were obtained. |  |  |
| B2 |  |  |  |  |  | wild-type GST-mSIK2 has an auto-phosphorylating activity and an activity of phosphorylating GST-Syntide 2 | the unphosphorylated peptide p300 wherein serine at position 89 is substituted with alanine inhibits the enzyme activity of SIK | a peptide wherein serine at position 89 in p300 is substituted with alanine becomes unphosphorylated |
